For six substances, Kd results are on record in publication PMC3169630.

The Kd is the concentration at which binding is half-saturated.

The target of assay [1] is recombinant human Siglec-3 Fc fusion protein (human) (UniProt P20138). As to the kind of experiment: SPR; BIAcore 3000, CM5 chip; Siglec-Fc immobilised at high density (12000–20000 RU); gp120 in PBS or HBS-P injected at 20 µL/min; KD from kinetic curve fitting. (In general: In SPR one partner is held on a chip, and binding of the other changes the refractive index at the surface.)
UniProt P20138, sequence (P20138 18-259): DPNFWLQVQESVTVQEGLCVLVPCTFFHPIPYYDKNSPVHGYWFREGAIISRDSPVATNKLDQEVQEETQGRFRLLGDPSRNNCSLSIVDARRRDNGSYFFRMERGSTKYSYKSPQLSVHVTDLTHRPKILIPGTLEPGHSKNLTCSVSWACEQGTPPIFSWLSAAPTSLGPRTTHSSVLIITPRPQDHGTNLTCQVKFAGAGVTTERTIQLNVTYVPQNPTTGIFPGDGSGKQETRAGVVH

The target of assay [2] is recombinant human Siglec-5 Fc fusion protein (human) (UniProt O15389). The assay is described as above.
UniProt O15389, sequence (O15389 17-441): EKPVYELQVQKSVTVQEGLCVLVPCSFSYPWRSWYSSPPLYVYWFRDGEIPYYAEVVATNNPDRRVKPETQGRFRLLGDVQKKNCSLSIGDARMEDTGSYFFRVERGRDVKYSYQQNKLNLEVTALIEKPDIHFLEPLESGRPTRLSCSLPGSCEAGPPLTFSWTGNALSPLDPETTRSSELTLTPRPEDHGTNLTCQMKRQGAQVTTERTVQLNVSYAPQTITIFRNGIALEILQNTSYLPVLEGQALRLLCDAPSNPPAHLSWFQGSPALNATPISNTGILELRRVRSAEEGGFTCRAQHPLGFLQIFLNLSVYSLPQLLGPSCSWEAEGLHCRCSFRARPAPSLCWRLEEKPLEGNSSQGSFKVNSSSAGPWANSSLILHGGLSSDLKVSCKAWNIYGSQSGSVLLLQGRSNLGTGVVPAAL
The target in assay [3] is recombinant human Siglec-7 Fc fusion protein (human) (UniProt Q9Y286). The assay is described as above.
UniProt Q9Y286, sequence (Q9Y286 19-353): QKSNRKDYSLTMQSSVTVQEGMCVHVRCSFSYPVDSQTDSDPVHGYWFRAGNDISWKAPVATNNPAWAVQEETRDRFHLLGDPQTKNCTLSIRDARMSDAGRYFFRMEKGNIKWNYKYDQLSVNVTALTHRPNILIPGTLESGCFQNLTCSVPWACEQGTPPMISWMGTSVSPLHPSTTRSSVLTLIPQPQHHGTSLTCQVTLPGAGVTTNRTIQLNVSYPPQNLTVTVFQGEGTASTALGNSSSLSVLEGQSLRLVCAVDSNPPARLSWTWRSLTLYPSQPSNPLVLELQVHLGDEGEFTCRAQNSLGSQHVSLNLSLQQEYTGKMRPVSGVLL
In assay [4] the target is recombinant human Siglec-1-Fc (four N-terminal Ig domains of hSiglec-1 fused to the Fc regions of human IgG1) (human). Kind of assay: SPR; BIAcore 3000, CM5 chip; Siglec-Fc immobilised at moderate density (2000–7000 RU; capture with immobilized protein A or amine cross-link); gp120 10–500 nM in PBS or HBS-P injected at 20 µL/min; KD from kinetic curve fitting.
For assay [5], the target named is recombinant human Siglec-3 Fc fusion protein (human) (UniProt P20138). Described as above.
Assay [6] concerns the target recombinant human Siglec-5 Fc fusion protein (human) (UniProt O15389). Described as above.
Assay [7] addresses recombinant human Siglec-7 Fc fusion protein (human) (UniProt Q9Y286). Described as above.
The target in assay [8] is recombinant human Siglec-9 Fc fusion protein (human) (UniProt Q9Y336). Described as above.
UniProt Q9Y336, sequence (Q9Y336 18-348): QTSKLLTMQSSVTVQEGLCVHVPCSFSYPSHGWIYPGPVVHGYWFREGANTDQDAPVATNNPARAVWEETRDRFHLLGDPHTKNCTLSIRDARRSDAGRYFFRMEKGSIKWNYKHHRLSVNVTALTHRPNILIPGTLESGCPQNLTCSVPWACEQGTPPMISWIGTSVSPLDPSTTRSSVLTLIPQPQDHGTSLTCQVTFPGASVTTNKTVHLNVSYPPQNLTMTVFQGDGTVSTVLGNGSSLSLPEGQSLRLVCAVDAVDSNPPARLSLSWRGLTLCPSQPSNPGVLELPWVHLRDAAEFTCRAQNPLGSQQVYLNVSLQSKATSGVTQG

“recombinant gp120 from the 93MW959 HIV-1 isolate (natural protein)”: the Kd in assay [1] came to 12 nM; in assay [2], 15 nM; in assay [3], 20 nM.

On to “recombinant gp120 from the 92UG21-9 HIV-1 isolate (natural protein)”, for which the Kd is 80 nM in assay [1]; 50 nM in assay [2]; 50 nM in assay [3]; 80 nM in assay [4]; 3800 nM in assay [5]; 47100 nM in assay [6]. Besides, the Kd came out at 49200 nM in assay [7] and 50 nM in assay [8].

“trimeric gp120 from the 93UG037 strain fused with a trimerization domain from T4 bacteriophage fibritin”: the Kd in assay [4] stood at 900 nM; in assay [6] it was 5100 nM; in assay [7], 2700 nM; in assay [8] it was 80 nM.

Consider “recombinant gp120 from the 92US715 HIV-1 isolate (natural protein)”, for which the Kd was 8 nM in assay [1]; 20 nM in assay [2]; 40 nM in assay [3]; 130 nM in assay [4]; 57800 nM in assay [5]; 9400 nM in assay [6]. The Kd was determined as 53400 nM in assay [7] and 23 nM in assay [8].

In the case of “recombinant gp120 from the 93UG037 HIV-1 isolate (monomeric) (natural protein)”, the Kd in assay [1] is 51 nM; in assay [2], 54 nM; in assay [3] it was 94 nM; in assay [4], 6300 nM; in assay [6], 20300 nM; in assay [7], 9900 nM. Also, the Kd in assay [8] was found to be 100 nM.

Turning to “recombinant gp120 from the SIVsmm PBj1.9 isolate (natural protein)”, the Kd in assay [1] turned out to be 180 nM; in assay [2] it was 14 nM; in assay [3] it was 19 nM; in assay [4], 120 nM; in assay [5], 54500 nM; in assay [6], 50500 nM. The results for the Kd in assay [7] and in assay [8] were 35400 nM and 270 nM, respectively.
